For one assay, the target named is ICOS (human) (UniProt Q9Y6W8). Nature of the assay: ELISA, coated protein 1 ug/mL; antibody concentration not stated. Background: In an ELISA, binding on a coated surface is turned into a signal by an enzyme label.
The target in another assay is B7-1 (human) (UniProt P33681). The description is as above.
The next assay deals with CTLA4 (human) (UniProt P16410). Described as above.
Another assay addresses CD28 (human) (UniProt P10747). The description is as above.
Assay [1] deals with human PD-1^ECD-hFc protein (Immunogen A) (human) (UniProt Q15116). The description is as above.
human PD-1^ECD-hFc protein (Immunogen A) (human), sequence (Q15116 25-167): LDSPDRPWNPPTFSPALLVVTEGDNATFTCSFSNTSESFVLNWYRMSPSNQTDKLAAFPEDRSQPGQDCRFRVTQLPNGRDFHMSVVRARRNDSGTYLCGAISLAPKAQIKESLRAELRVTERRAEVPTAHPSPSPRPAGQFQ
The target in assay [2] is full length human PD-1 on cells (human) (UniProt Q15116). Nature of the assay: flow cytometry, CHO-K1-hPD-1 cells; antibody 0.01 nM. For orientation: Flow cytometry measures light scatter and fluorescence of single cells or particles in a stream.
full length human PD-1 on cells (human), sequence (Q15116 25-288 limits assumed): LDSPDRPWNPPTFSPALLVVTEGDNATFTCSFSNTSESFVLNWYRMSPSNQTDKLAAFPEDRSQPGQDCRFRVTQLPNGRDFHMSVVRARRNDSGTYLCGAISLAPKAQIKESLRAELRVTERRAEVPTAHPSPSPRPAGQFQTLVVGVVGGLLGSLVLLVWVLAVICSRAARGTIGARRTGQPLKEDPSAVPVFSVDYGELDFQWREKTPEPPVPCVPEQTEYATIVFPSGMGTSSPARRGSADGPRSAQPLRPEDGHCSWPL
Assay [3] deals with human PD-1^ECD-hFc protein (Immunogen A) (human) (UniProt Q15116). Description: ELISA, coated human PD-1ECD-hFc; antibody 0.001 nM.
In assay [4] the target is full length human PD-1 on cells (human) (UniProt Q15116). Nature of the assay: flow cytometry, CHO-K1-hPD-1 cells; antibody 0.0001 nM.
For assay [5], the target named is cyno PD-1^ECD-hFc protein (cyno monkey) (UniProt B0LAJ3). Nature of the assay: ELISA, coated cyno PD-1ECD-hFc; antibody 0.0001 nM.
cyno PD-1^ECD-hFc protein (cyno monkey), sequence (B0LAJ3 entry or part of it limits assumed): as the sequence (Q15116 25-167) above, with D2E, P10A, V19L, T35A, Q75R counted along it
For assay [6], the target named is human PD-1, full length, on cells (human) (UniProt Q15116). Nature of the assay: cell-based or functional assay.
human PD-1, full length, on cells (human), sequence (Q15116 25-288): as the sequence (Q15116 25-288 limits assumed) above
The target of assay [7] is human PD-1^ECD-hFc protein (Immunogen A) (human) (UniProt Q15116). Nature of the assay: ELISA, coated human PD-1ECD-hFc; antibody 0.00001 nM.
Assay [8] has as its target cyno PD-1^ECD-hFc protein (cyno monkey) (UniProt B0LAJ3). Nature of the assay: ELISA, coated cyno PD-1ECD-hFc; antibody 0.00001 nM.
The target of assay [9] is full length human PD-1 on cells (human) (UniProt Q15116). Nature of the assay: flow cytometry, CHO-K1-hPD-1 cells; antibody 0.00001 nM.
Assay [10] addresses cyno PD-1^ECD-hFc protein (cyno monkey) (UniProt B0LAJ3). Nature of the assay: ELISA, coated cyno PD-1ECD-hFc; antibody 0.001 nM.
In assay [11] the target is full length human PD-1 on cells (human) (UniProt Q15116). Description: flow cytometry, CHO-K1-hPD-1 cells; antibody 0.001 nM.
The target of assay [12] is human PD-1^ECD-hFc protein (Immunogen A) (human) (UniProt Q15116). Nature of the assay: ELISA, coated human PD-1ECD-hFc; antibody 0.0001 nM.
Assay [13] shares this target. Description: ELISA, coated PD-1ECD-hFc; biotinylated protein 0.04 ug/mL.
The target is the same in assay [14]. Description: ELISA, coated PD-1ECD-hFc; biotinylated protein 0.0016 ug/mL.
The target is the same in assay [15]. Nature of the assay: ELISA, coated PD-1ECD-hFc; biotinylated protein 0.00001 ug/mL.
The target is the same in assay [16]. Nature of the assay: ELISA, coated PD-1ECD-hFc; biotinylated protein 0.008 ug/mL.
Assay [17] has the same target. Description: ELISA, coated PD-1ECD-hFc; biotinylated protein 0.2 ug/mL.
Assay [18] shares this target. Description: ELISA, coated PD-1ECD-hFc; biotinylated protein 1 ug/mL.
Assay [19] shares this target. Description: ELISA, coated PD-1ECD-hFc; biotinylated protein 0.0001 ug/mL.
Assay [20] shares this target. Description: ELISA, coated PD-1ECD-hFc; biotinylated protein 0.0003 ug/mL.

B7-1 (human), sequence (P33681 35-242 limits assumed): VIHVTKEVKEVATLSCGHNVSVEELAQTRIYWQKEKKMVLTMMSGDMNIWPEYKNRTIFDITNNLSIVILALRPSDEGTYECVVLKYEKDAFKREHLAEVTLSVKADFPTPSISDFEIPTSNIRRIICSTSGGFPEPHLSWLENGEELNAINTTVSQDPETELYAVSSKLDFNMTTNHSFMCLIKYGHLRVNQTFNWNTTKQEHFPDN
CTLA4 (human), sequence (P16410 37-162 limits assumed): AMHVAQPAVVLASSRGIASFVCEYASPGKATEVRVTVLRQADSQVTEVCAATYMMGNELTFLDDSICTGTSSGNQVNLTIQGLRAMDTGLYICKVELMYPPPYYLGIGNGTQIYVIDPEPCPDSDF
ICOS (human), sequence (Q9Y6W8 21-140 limits assumed): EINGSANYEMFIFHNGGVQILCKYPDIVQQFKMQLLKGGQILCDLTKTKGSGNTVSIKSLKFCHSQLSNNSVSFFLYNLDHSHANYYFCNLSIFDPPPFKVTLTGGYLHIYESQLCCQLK
CD28 (human), sequence (P10747 19-152 limits assumed): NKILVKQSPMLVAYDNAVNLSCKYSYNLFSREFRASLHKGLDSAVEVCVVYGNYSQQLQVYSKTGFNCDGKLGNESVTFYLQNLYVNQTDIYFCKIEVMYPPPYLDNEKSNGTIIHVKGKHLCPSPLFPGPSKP

For the substance IgG control (human IgG) (antibody), the OD450 nm with ICOS (human) came to 0.142; in the assay with B7-1 (human), 0.07; with CTLA4 (human) it was 0.062; with CD28 (human), 0.064; in [1], 0.082; in [3] it was 0.311. Moreover, the OD450 nm in assay [5] worked out at 0.11; in assay [7], 0.287; in assay [8], 0.116; in assay [10] it was 0.106; in assay [12], 0.298. Further, the Mean fluorescence intensity in assay [2] came to 2.9; in assay [4], 3.1; in assay [9], 2.7; in assay [11], 2.9. In assay [6], the IFN-γ release, mixed lymphocyte reaction (PBMC donor-2), antibody 0.01 µg/mL came out at 353 pg/mL. The substance also yielded an IFN-γ release, mixed lymphocyte reaction (PBMC donor-2), antibody 0.1 µg/mL in assay [6] of 281 pg/mL. Besides, the IFN-γ release, mixed lymphocyte reaction (PBMC donor-2), antibody 1 µg/mL in assay [6] stood at 127 pg/mL.
Regarding “control protein (biotinylated non-PD-L1^ECD-hFc)”, the OD450 nm in assay [13] was determined as 0.09; in assay [14], 0.195; in assay [15], 0.205; in [16], 0.14; in [17] it was 0.095; in [18] it was 0.13. Further, the results for the OD450 nm in assay [19] and in assay [20] were 0.32 and 0.195, respectively.

For the origin of these results see US20180214548A1.
